Data reported in US10858688B2, “Observation method using binding and dissociation probe” (KYOTO UNIVERSITY, priority 2015, dated 2020).

B1: Plectin-1 3777-4684: EGFP fused (N terminus) human Plectin-1 fragment, residues 3777-4684 of sequence number 8 (protein, listed as Homo sapiens)
chain: YDYVRRRLTAEDLFEARIISLETYNLLREGTRSLREALEAESAWCYLYGTGSVAGVYLPGSRQTLSIYQALKKGLLSAEVARLLLEAQAATGFLLDPVKGERLTVDEAVRKGLVGPELHDRLLSAERAVTGYRDPYTEQTISLFQAMKKELIPTEEALRLLDAQLATGGIVDPRLGFHLPLEVAYQRGYLNKDTHDQLSEPSEVRSYVDPSTDERLSYTQLLRRCRRDDGTGQLLLPLSDARKLTFRGLRKQITMEELVRSQVMDEATALQLREGLTSIEEVTKNLQKFLEGTSCIAGVFVDATKERLSVYQAMKKGIIRPGTAFELLEAQAATGYVIDPIKGLKLTVEEAVRMGIVGPEFKDKLLSAERAVTGYKDPYSGKLISLFQAMKKGLILKDHGIRLLEAQIATGGIIDPEESHRLPVEVAYKRGLFDEEMNEILTDPSDDTKGFFDPNTEENLTYLQLMERCITDPQTGLCLLPLKEKKRERKTSSKSSVRKRRVVIVDPETGKEMSVYEAYRKGLIDHQTYLELSEQECEWEEITISSSDGVVKSMIIDRRSGRQYDIDDAIAKNLIDRSALDQYRAGTLSITEFADMLSGNAGGFRSRSSSVGSSSSYPISPAVSRTQLASWSDPTEETGPVAGILDTETLEKVSITEAMHRNLVDNITGQRLLEAQACTGGIIDPSTGERFPVTDAVNKGLVDKIMVDRINLAQKAFCGFEDPRTKTKMSAAQALKKGWLYYEAGQRFLEVQYLTGGLIEPDTPGRVPLDEALQRGTVDARTAQKLRDVGAYSKYLTCPKTKLKISYKDALDRSMVEEGTGLRLLEAAAQSTKGYYSPYSVSGSGSTAGSRTGSRTGSRAGSRRGSFDATGSGFSMTFSSSSYSSSGYGRRYASGSSASLGGPESAVA
modifications: N-terminal EGFP fusion
B2: Plectin-1 3777-4364: EGFP fused (N terminus) human Plectin-1 fragment, residues 3777-4364 of sequence number 8 (protein, UniProt Q15149 3777-4364, looked up, fragment)
chain: YDYVRRRLTAEDLFEARIISLETYNLLREGTRSLREALEAESAWCYLYGTGSVAGVYLPGSRQTLSIYQALKKGLLSAEVARLLLEAQAATGFLLDPVKGERLTVDEAVRKGLVGPELHDRLLSAERAVTGYRDPYTEQTISLFQAMKKELIPTEEALRLLDAQLATGGIVDPRLGFHLPLEVAYQRGYLNKDTHDQLSEPSEVRSYVDPSTDERLSYTQLLRRCRRDDGTGQLLLPLSDARKLTFRGLRKQITMEELVRSQVMDEATALQLREGLTSIEEVTKNLQKFLEGTSCIAGVFVDATKERLSVYQAMKKGIIRPGTAFELLEAQAATGYVIDPIKGLKLTVEEAVRMGIVGPEFKDKLLSAERAVTGYKDPYSGKLISLFQAMKKGLILKDHGIRLLEAQIATGGIIDPEESHRLPVEVAYKRGLFDEEMNEILTDPSDDTKGFFDPNTEENLTYLQLMERCITDPQTGLCLLPLKEKKRERKTSSKSSVRKRRVVIVDPETGKEMSVYEAYRKGLIDHQTYLELSEQECEWEEITISSSDGVVKSMIIDRRSGRQYDIDDAIAKNLIDRSALDQYRAGTL
modifications: N-terminal EGFP fusion
B3: Plectin-1 3777-4313: EGFP fused (N terminus) human Plectin-1 fragment, residues 3777-4313 of sequence number 8 (protein, UniProt Q15149 3777-4313, looked up, fragment)
chain: YDYVRRRLTAEDLFEARIISLETYNLLREGTRSLREALEAESAWCYLYGTGSVAGVYLPGSRQTLSIYQALKKGLLSAEVARLLLEAQAATGFLLDPVKGERLTVDEAVRKGLVGPELHDRLLSAERAVTGYRDPYTEQTISLFQAMKKELIPTEEALRLLDAQLATGGIVDPRLGFHLPLEVAYQRGYLNKDTHDQLSEPSEVRSYVDPSTDERLSYTQLLRRCRRDDGTGQLLLPLSDARKLTFRGLRKQITMEELVRSQVMDEATALQLREGLTSIEEVTKNLQKFLEGTSCIAGVFVDATKERLSVYQAMKKGIIRPGTAFELLEAQAATGYVIDPIKGLKLTVEEAVRMGIVGPEFKDKLLSAERAVTGYKDPYSGKLISLFQAMKKGLILKDHGIRLLEAQIATGGIIDPEESHRLPVEVAYKRGLFDEEMNEILTDPSDDTKGFFDPNTEENLTYLQLMERCITDPQTGLCLLPLKEKKRERKTSSKSSVRKRRVVIVDPETGKEMSVYEAYRKGLIDHQTYLELSEQEC
modifications: N-terminal EGFP fusion
B4: Plectin-1 4022-4364: EGFP fused (N terminus) human Plectin-1 fragment, residues 4022-4364 of sequence number 8 (protein, listed as Homo sapiens)
chain: FRGLRKQITMEELVRSQVMDEATALQLREGLTSIEEVTKNLQKFLEGTSCIAGVFVDATKERLSVYQAMKKGIIRPGTAFELLEAQAATGYVIDPIKGLKLTVEEAVRMGIVGPEFKDKLLSAERAVTGYKDPYSGKLISLFQAMKKGLILKDHGIRLLEAQIATGGIIDPEESHRLPVEVAYKRGLFDEEMNEILTDPSDDTKGFFDPNTEENLTYLQLMERCITDPQTGLCLLPLKEKKRERKTSSKSSVRKRRVVIVDPETGKEMSVYEAYRKGLIDHQTYLELSEQECEWEEITISSSDGVVKSMIIDRRSGRQYDIDDAIAKNLIDRSALDQYRAGTL
modifications: N-terminal EGFP fusion
B5: Plectin-1 4066-4364: EGFP fused (N terminus) human Plectin-1 fragment, residues 4066-4364 of sequence number 8 (protein, listed as Homo sapiens)
chain: LEGTSCIAGVFVDATKERLSVYQAMKKGIIRPGTAFELLEAQAATGYVIDPIKGLKLTVEEAVRMGIVGPEFKDKLLSAERAVTGYKDPYSGKLISLFQAMKKGLILKDHGIRLLEAQIATGGIIDPEESHRLPVEVAYKRGLFDEEMNEILTDPSDDTKGFFDPNTEENLTYLQLMERCITDPQTGLCLLPLKEKKRERKTSSKSSVRKRRVVIVDPETGKEMSVYEAYRKGLIDHQTYLELSEQECEWEEITISSSDGVVKSMIIDRRSGRQYDIDDAIAKNLIDRSALDQYRAGTL
modifications: N-terminal EGFP fusion

tested on: intermediate filament; assay: Localization test of probe candidates (integrated SiMS images); assay type: cell-based, Xenopus laevis; parameters: key: “localization” is positive (P) when above criterion (1) is met; conditions: fixed, permeabilized XTC cell; lysate supernatant of EGFP fused probe; TIRF, 10000 frames
Experimental: HEK (Human embryonic kidney)-293F cells were transfected with a plasmid encoding a probe candidate protein tagged with FLAG-EGFP or 3×FLAG-EGFP. […] Centrifugal separation was performed on the lysate and the supernatant liquid was collected. In order to perform screening for a probe for IRIS, the binding capacity of a probe candidate in the supernatant liquid with respect to the structure of an XCT cell that was fixed with paraformaldehyde (PFA) and that received a permeabilization process was tested. The appearance and disappearance of single molecule speckles (Single-molecule speckles, SiMS) in the structure was tested. Screening was performed for a probe for IRIS in accordance with the following criteria:
(1) It is possible to confirm a distribution of target substances in the structure in an image resulting from adding SiMS images;
The localization test of the above (1), whose result is shown in table 1, was performed in the following procedures. First, the supernatant liquid of lysate of a cell that expressed each probe candidate was brought into contact with an XCT cell that was fixed on a coverglass and that received a permeabilization process. […] The obtained speckle images of 10000 frames were integrated so as to confirm whether or not a distribution of target substances in the cell (microtubule, intermediate filament, focal adhesion or actin filament) was able to be confirmed. When a distribution of a target substances was able to be confirmed, the result of the localization test was treated as P (positive).

Molecule	LOCALIZATION
B1	P
B2	P
B3	P
B4	P
B5	P

tested on: intermediate filament; assay: Washability test of probe candidates; assay type: cell-based, Xenopus laevis; parameters: key: “washability” is positive (P) when above criterion (2) is met; conditions: speckles equal to or less than about 10% after switching imaging solution 10 to 20 times
Experimental: (2) It is possible to wash and remove a probe after SiMS imaging (imaging step);
The […] of the above (2), whose result is shown in table 1, was performed in the following procedures. […] This switching of imaging solution was conducted slowly so that the observation position would not shift. Next, an imaging solution not containing a probe and not containing the active oxygen-scavenging mix was switched 10 to 20 times. After the switching, for confirmation, for an XCT cell sample in the observation chamber, speckle images of 10 frames were picked up under a similar condition to that of the localization test described in the previous paragraph, and when the number of speckles confirmed in the speckle images (i.e., the number of probes that had bound) became sufficiently smaller (equal to or less than about 10%) than the number of the speckles in the speckle images before the washing operation, washing was determined to be possible and the result was treated as P (positive).

Molecule	WASHABILITY
B1	P
B2	P
B3	P
B4	P
B5	P

tested on: intermediate filament; assay: IRIS image test (reconstruction image); assay type: cell-based, Xenopus laevis; parameters: key: “IRIS image” is positive (P) when above criterion (3) is met; conditions: reconstruction from 10000 frames with DAOSTORM
Experimental: […] It is possible to reconstruct an image of a target substance by integrating the central positions of the respective speckles. The IRIS image test of the above (3) whose result is described in table 1 was performed in the following procedures. By using all the speckle images of 10000 frames picked up in the localization test, the central point of a probe that has bound to a target in each frame of the speckle images was determined with nanometer accuracy by using DAOSTORM. By adding a large number of pieces of central point information in the fluorescence images of 10000 frames, a reconstruction image (observation image) was generated. Whether or not a distribution of a target molecule was able to be observed in that reconstruction image was determined, and when a distribution of a target molecule was observed, the result was treated as P (positive).

Molecule	IRIS IMAGE
B1	P
B2	P
B3	P
B4	P

tested on: intermediate filament; assay: Measurement of binding half-life of probe-target complex; parameters: species or system Xenopus laevis; conditions: fixed XTC cell, single exponential fit
From the text: A probe and a target substance have the following binding characteristics. […] The above half-life herein is preferably a half-life of a probe-target complex formed by binding between a probe and a target substance in a case when a medium containing a probe and a sample containing a target substance that is to be observed are brought into contact under a condition for performing an imaging step. […] Measurement procedures for the half-life are as below. […] Ndissociation is a cumulative relative frequency of a probe that dissociated. A cumulative relative frequency is a ratio of the speckles that disappeared within a given period of time to the total number of measured speckles (i.e. probes) (i.e. probes that dissociated within a given period of time), and represents the total number as 1. Then, by fitting the above complementary cumulative relative frequency function with an exponent function, that half-life is calculated.
The measurement of binding half-life, whose result is shown in table 1, was performed in the following procedures. Speckle images of 10000 frames picked up in the localization test were used in order to measure a period of time between the appearance of a probe that has bound to a target in a speckle image and disappearance through dissociation in a semi-manual mode by using Speckle TrackerJ, an ImageJ plug-in. In case of for example picking up of images with an exposure time of 50 ms and at a frame rate of 20 Hz, it is assumed that a period of time between the appearance and disappearance of a speckle that is observed in only one of consecutive frames is 50 ms and a period of time between the appearance and disappearance of a speckle observed in only two consecutive frames is 100 ms. […] Ndissociation is a cumulative relative frequency of probes that dissociated. Then, by fitting the complementary cumulative relative frequency function with an exponent function, the half-life was calculated. However, the binding half-life with respect to an actin filament of Atto488-Lifeact was measured by using a method that is described in detail in the section for FIG. 9 in the Brief Description of the Drawings.

Molecule	HALF-LIFE
B1	0.457 s
B2	0.059 s
B3	0.052 s
B4	0.103 s
B5	7.7 s
